Test: soluble on expression in E. coli; label from the status in PepcDB or PDB records

Sequence	soluble on expression in E. coli
MAHHHHHHMIHEMCFQELSDSILPAHNGEVALMLATGSPFTDAMTTAAPQQDVWGSSLFSLPELGTDLHSEVSQQNIEKSGSNLNCELQTASHVCNLAPVTFKEEQNKTRITESNTTFGPTPSMHCLSFGSVNAQSNIPSIANSTPNPLACSMVCTSQAPQLSFSSLMSIGNTTVPANSSSTTNGLAYQQASPVATVSNGIPAFFTTAQNGGNVVMFAPSNSQQTLCIPTPVPTMIPYYVIAPPQHTVEVNGTMAYSSLSTAPQSMPPVMCGPWTTNTGSVVGSGAPTPVSVSSASGVMPQTFVTSVTTKPSQPVSFSFPSGDSNQNSASASSIIPLCADGSGNQKAPPRGSPPSYDSLRIQITKRRQPSGRQRSGTNVHGSLQGICSYYSYNLSAALKQYEHPDFHVAKPVEQVLPVFVQMFPCELRDRTIIVLNRVVEATCGPDIATVVGIEPRSETSFITLIRTNDVWHLIHKLRCRVLMDRHGFWYAENMEQYLRLKEYCESVRRLPQQIRHFQTDGLPCMPLVVELSRSVNAASVTSLPAPPSFDEVAPIATMERHGRVATLTGSNEDGSSSPRETGEVINAAAVPLPSGVGRV	not soluble
QTFSEEDHAILASYFPIVDGIAALIGEHCEIVLHSLEFLENSAIYIANGHNTDRKIGSPLTDKALKSLHQMQTDSVSKPYFTRLKGGILMKSITIAIRNSKQHVIGFICININLDVPTAQFLTSFIPRTQDDEN	not soluble
MKTSSIIEFKNPISKYQHDVDDGLHSDYKVINNEFIHKSIRILENYQFIQSLSHADKSTLIQHLKIRKYYHNQTVYNQNDPCTDINILLEGALKLGWSTSQGKYHTDIFVPSGTLINIVPIVTGQPLLHDHIAQGRTVIANLPGQLFVDVIRNNADALFMVLKLICVRTQLNREQNFIYSTETLQTRLAKKLVFLVDYHSYQDKDKILLNLKLSQENLAELLQTSRQSINKELAALSNQNIIEVKYNQIFILDFEKLSNIAQTHQFHSTTKFL	not soluble
EVQLVESGGGLVQPGGSLRLSCAASGFTFSRYTMSWVRQAPGKGLEWVATISGGGHTYYLDSVKGRFTISRDNSKNTLYLQMNSLRAEDTAVYYCTRGFGDGGYFDVWGQGTLVTVSSAKTTPPSVYPLAPGSAAQTNSMVTLGCLVKGYFPEPVTVTWNSGSLSSGVHTFPAVLQSDLYTLSSSVTVPSSTWPSETVTCNVAHPASSTKVDKKIVPRDCHHHHHH	soluble
INVIISTIISTKRADDFIIAMCNLIQRLTIDSLHIVGDIYDRGPGAHIIMDTLCNYHNFDIQWGNHDILWMGAASGNDSCIANVIRMSMRYGNLGTLEDGYGINLLPLATFAMDTYADDPCTIFMPKMNFADTNYNEKTLRLITQMHKAITIIQFKLEAEIIDRRPEFGMSNRKLLEKIDFERGVFVYEGKEYALRDTNFPTVDPADPYRLTDEERELVEKIHYSFMNSEKLKKHMRCLFTYGGMYLVSNSNLLYHASVPLNEDGSFKHVKIRGKEYWGRKLLDKADQLIRTAYFDEEGEDDKEFAMDYIWYMWCGPEAPLFDKDKMATFERYFLEDKEIQKEKKGYYYTLRNREDICDQILDEFGALGPHSHIINGHVPVKTIQGEQPMKANGKLFVIDGGFSKAYQPETGIAGYTLVYHSHGMQL	not soluble
MFDKLKENEELWDLFTRKEEYSVTFRDAYERFPYYLSSHRNIFEPRVSKFLVENGLKPQYPDGKKFAVCLTHDIDAIYPDKLYPIVGPVKALSRGKLAEAVKAPFSRVNRKWNPCWNFREILALEAKYNAKSSFYFLALTSEETDFNYNIKDLETELGFISDSGWEVGLHGGHESYNSLEDIKEKKRRLEEVLGKKVVGYRNHYLRFRVPDTWELLSKAGFKYDTTFGYSDCAGFRNGMCHPYRPFNLNEGRQIDILEIPLVIMDRSLLKDYMRLNVKKAWECTKHLINTVEKYNGVITILWHNNMCIDGENLRYYEKVLEYCAEKNAWITSGEEIYNWWTSKIEPGNLEHHHHHH	not soluble
MDEIPADIRNEIIYYYRLSRKVLLGLYNKSIIFVLPSIVEGMPSPPLEAMACGCAVVVTDNGGVNEYIKDGLNGIVCPVRDSYCLYQKVILLINNKALREQMIQDGLETAKEFSYDNMNKNFIRLIEEVQRRKSLEHHHHHH	not soluble
MRGSHHHHHHGSACVSKRRVVVTGLGMLSPVGNTVESTWKALLAGQSGISLIDHFDTSAYATKFAGLVKDFNCEDIISRKEQRKMDAFIQYGIVAGVQAMQDSGLEITEENATRIGAAIGSGIGGLGLIEENHTSLMNGGPRKISPFFVPSTIVNMVAGHLTIMYGLRGPSISIATACTSGVHNIGHAARIIAYGDADVMVAGGAEKASTPLGVGGFGAARALSTRNDNPQAASRPWDKERDGFVLGDGAGMLVLEEYEHAKKRGAKIYAELVGFGMSSDAYHMTSPPENGAGAALAMANALRDAGIEASQIGYVNAHGTSTPAGDKAEAQAVKTIFGEAASRVLVSSTKSMTGHLLGAAGAVESIYSILALRDQAVPPTINLDNPDEGCDLDFVPHEARQVSGMEYTLCNSFGFGGTNGSLIFKKI	soluble
MIILDNSIQTKKRTDSLSKLITVNTLGPEGTSSEYAAKHFISNFTLLQGLNSKLSLHDTFESCIERTLQSPLEYTIVPHAYDGIKHFYMRPDLQLLQIFRCDTPMYGLAVRPDFEFRDDMLDTSVIVSHPSPINLIKYFTRKDVRFKLVNSTSQAARKVKEGLYDIALTNELARQKYGLTFVKTFKSIPMSWSLFGKGDVDDENLEHHHHHH	not soluble
MAHHHHHHMSSRIGHAGTGMPTRGIASFPNSPPAVRNSCSTADTEGFGVSMESTIFTGTFSTAACAHAPTRRTVEAREQTSTVLDHLVTHIVDVPFFLARNAEERAHGCSLSLATAACPGTKLVMRNPRRRLISHSSQTHGAPASSHWPKVLFVPDSSSQRLAAPP	not soluble
MAHHHHHHMKRENVSFPHAQSNVVSNLDGNTLLNDSLVQQSCSPTESKEDVKTEYDSFVDAPVIPLTEKFDDNYSQPVSTVNPRDDSIKCEMDVLPASSLTSVCNRKVIHGEKVDNDRVKIVRDWLLMPVLSQDSDFEGDGDDFIDTLLHIAEDKMYLYGFYERLGQTELVTTRRINNRKRSRGSNGISHATGNQGAQAPVMATSPPQVLPFSFVNWLPNSGKGRCDPERVHQQTISSDAILCSGEKYTLCRYALSSGKLRKECADPYQFLTAKLQEIRHCMEEELMGDAKNSNEKKTGVTDY	not soluble
MTDQQRRVVFMATSLLLDYPDDRWEDIIDAVSVQIDDLPKNTRQQFVQFLTAVRVMGRRGMEQHYVECFDQRRRCSLFLSYYAVGDTRQRGAAILAFQESLETLGFFLEREELPDHLCVVLEVAAKAEGLAHHVATDMLAAHRDGIEVLRVALEHSDSPYSRLVAAVCSALPDIDEETRKNFVDLIRSGPPAELIGIESPLPFPTATNV	not soluble
MSRLQLAIEERDEAIARAKHMEMSLKVLENINPEENDMTLQELLNRINNADTGIAIQKNGAIIVDRIYKTKECKMRITAEEMSALIEERDAALSKCKRLEQELHHVKEQNQTSANNMRHLTAENNQERALKAKLLSMQQARETAVQQYKKLEEEIQTLRVYYSLHKSLSQEENLKDQFNYTLSTYEEALKNRENIVSITQQQNEELATQLQQALTERANMELQLQHAREASQVANEKVQKLERLVDVLRKKVGTGTMRTVI	soluble
GPGSMLGGRHFQRKYEKKQKKKEAKKASQGPLRGAGGSSGVRAAVAAAAGAAVKRKDGSTLKGPVVSHGDFMASRDSANNRKNVPFSSKMEEKVYRKEHRVPKYNSIVDPERQNLAKAAGASSAAQRRRVLRQKGGDDLLDHFRERLNASTFRLLNEQVYNAPTTLASRLLREEATFRDYHTGYHQQLMQWPINPNKLIVESLLGDRRGRFLANKGKSMPGHIPPSWVVADMGCGEAQIAAALKPKGYTVHSFDFFALNSLVTVADTTKVPLADNHVDVCVFSLSLMATDYVKSLFEAFRVLKPKRLLKIIEVRSRVPFPRKFAELVEDIGFDVDYSDVAGDYFVAFDFIKKDGQAAANTQLRHEPGDVLVPSLYKKR	soluble
MMLSKVLRNSPLLFRVAQPKDHERIIKFLDKHFAKEEPCSRALKISPEISRGVFTATVTRCLTTPFSTVVLQENGDLAACLLASVWNRTDPLENADFDDTGLPENFKLFIQFLNKAHLNFWKIAPPNVNSIIHREIGSVAPQFTRLGIATKMVTTNMTKRNLKKYNIGGVLSETTSLANQIVLEKAGFKCLKELPYSTIVDSKGNQVLKLDDGTTSLCLNFKPIEEYENLPE	not soluble
